Measurements published in patent US20080060092A1.

Assays:
[1] = target: FcγRIIIa on human effector cells of a FcγRIIIa Phe/Phe^158 homozygote donor (human) (UniProt P08637); assay: cell-based or functional assay
[2] = target: FcγRIIIa on human effector cells of a FcγRIIIa Phe/Val^158 heterozygote donor (human) (UniProt P08637); assay: cell-based or functional assay

Substance | ADCC, maximal percent cell lysis of L540 target cells [1] | ADCC, maximal percent cell lysis of L540 target cells [2] | ADCC EC50, times lower than MDX-060 CHO [2] | ADCC EC50, times lower than MDX-060 LEX [2]
MDX-060 CHO (antibody) | 15% | 31% | – | –
MDX-060 LEX (antibody) | 27% | 31% | – | –
MDX-060 LEX^Opt (antibody) | – | – | 5 fold | 3 fold
